These results are taken from patent US20250304709A1 (Eli Lilly, published 2025).

The target in experiment [1] is T1, mouse L1CAM-hIgG1-Fc (mouse; human, UniProt P11627 20-1123, limits assumed).
T1 construct: also called mL1CAM; not shown: human IgG1 Fc
The experiment can be described thus: SPR, Biacore T200, 25 C, MBM captured by human Fab capture kit, target as analyte, 1:1 fit (column head also prints '(10^-4)', not applied a second time). The procedure: (§1) A human Fab capture kit (Cytiva P/N 28958325) is immobilized on a CM5 chip (Cytiva P/N 29104988) using standard NHS-EDC amine coupling on all four flow cells (Fc). Multispecific binding molecules (“MBM1” of Table 2, with or without conjugated siRNA (denoted by *) as described above) are prepared at 10 μg/mL by dilution into running buffer. Target (e.g., mouse TFR-mIgG1-Fc, mouse L1CAM-hIgG1-Fc and human L1CAM-hIgG1-Fc, respectively) are prepared at final concentrations of 100.0, 25.0, 6.25, 1.56, 0.39, 0.097, 0.024 and 0 (blank) nM by dilution into running buffer.
(§2) Each analysis cycle consists of (1) capturing multispecific binding molecule samples on separate flow cells (Fc2, Fc3 and Fc4); (2) injection of the respective concentration for the blood brain barrier target (e.g., TFR) over all Fc at 10 μL/min for 60 seconds followed by return to buffer flow for 1800 seconds to monitor dissociation phase; (3) injection of each human L1CAM concentration over all Fc at 100 μL/min for 120 seconds followed by return to buffer flow for 1200 seconds to monitor dissociation phase; (4) regeneration of chip surfaces with injection of 10 mM glycine, pH 1.5, for 30 seconds at 10 μL/min over all cells; and (5) equilibration of chip surfaces with a 10 μL (60-sec) injection of HBS-EP+. Data are processed using standard double-referencing and fit to a 1:1 binding model using Biacore T200 Evaluation software, version 2.0.3, to determine the association rate (kₒₙ, M⁻¹s⁻¹ units), dissociation rate (koff, s⁻¹ units), and Rₘₐₓ (RU units). The equilibrium dissociation constant (KD) is calculated from the relationship KD=koff/kₒₙ, and presented in molar units.
(SPR reads the build-up and loss of mass on a sensor chip optically.)

The target in experiment [2] is T2, human L1CAM-hIgG1-Fc (human, UniProt P32004 20-1120, limits assumed).
T2 construct: also called hL1CAM; not shown: human IgG1 Fc
T2 sequence (P32004 20-1120 limits assumed): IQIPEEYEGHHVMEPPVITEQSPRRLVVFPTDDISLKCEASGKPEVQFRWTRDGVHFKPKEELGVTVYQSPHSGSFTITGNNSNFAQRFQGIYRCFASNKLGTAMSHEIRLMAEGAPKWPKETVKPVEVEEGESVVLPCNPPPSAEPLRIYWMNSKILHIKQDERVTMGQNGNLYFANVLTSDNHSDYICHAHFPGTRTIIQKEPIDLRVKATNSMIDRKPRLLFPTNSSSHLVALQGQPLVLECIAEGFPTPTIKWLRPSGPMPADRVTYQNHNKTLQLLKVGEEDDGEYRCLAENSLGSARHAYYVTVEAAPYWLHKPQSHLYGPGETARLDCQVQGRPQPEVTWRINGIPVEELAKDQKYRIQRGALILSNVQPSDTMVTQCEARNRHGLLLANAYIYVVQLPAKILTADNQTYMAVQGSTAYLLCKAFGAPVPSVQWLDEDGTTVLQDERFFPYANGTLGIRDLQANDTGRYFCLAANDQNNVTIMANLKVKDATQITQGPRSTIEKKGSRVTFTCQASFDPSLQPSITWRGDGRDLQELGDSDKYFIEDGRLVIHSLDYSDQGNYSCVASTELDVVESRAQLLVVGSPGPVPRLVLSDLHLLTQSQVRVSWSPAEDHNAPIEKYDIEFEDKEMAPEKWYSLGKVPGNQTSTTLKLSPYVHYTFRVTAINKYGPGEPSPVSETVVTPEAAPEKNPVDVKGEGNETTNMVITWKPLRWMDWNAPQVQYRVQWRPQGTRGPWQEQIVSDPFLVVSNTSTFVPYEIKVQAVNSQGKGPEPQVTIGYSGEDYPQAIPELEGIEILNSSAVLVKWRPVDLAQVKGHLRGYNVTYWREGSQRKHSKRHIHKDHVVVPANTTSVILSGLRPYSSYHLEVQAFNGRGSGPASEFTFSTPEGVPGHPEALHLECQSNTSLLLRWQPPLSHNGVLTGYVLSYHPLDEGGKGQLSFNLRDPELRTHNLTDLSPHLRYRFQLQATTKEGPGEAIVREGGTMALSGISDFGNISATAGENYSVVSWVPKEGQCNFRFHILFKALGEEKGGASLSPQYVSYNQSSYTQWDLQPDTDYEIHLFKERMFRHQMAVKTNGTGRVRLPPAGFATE
Described as above. On the procedure: as §1, §2

Experiment [3] addresses T1, mouse L1CAM-hIgG1-Fc. The experiment in a line: SPR, Biacore T200, 25 C, MBM captured by human Fab capture kit, KD=koff/kon (column head prints pM; text says molar units). The procedure:
as §1, §2

The target in experiment [4] is T2, human L1CAM-hIgG1-Fc. Described as above. On the procedure:
as §1, §2

In experiment [5] the target is T1, mouse L1CAM-hIgG1-Fc. The experiment in a line: SPR, Biacore T200, 25 C, MBM captured by human Fab capture kit, target as analyte, 1:1 fit. The procedure:
as §1, §2

The target of experiment [6] is T2, human L1CAM-hIgG1-Fc. The description is as above. On the procedure:
as §1, §2

T1 sequence (P11627 20-1123 limits assumed): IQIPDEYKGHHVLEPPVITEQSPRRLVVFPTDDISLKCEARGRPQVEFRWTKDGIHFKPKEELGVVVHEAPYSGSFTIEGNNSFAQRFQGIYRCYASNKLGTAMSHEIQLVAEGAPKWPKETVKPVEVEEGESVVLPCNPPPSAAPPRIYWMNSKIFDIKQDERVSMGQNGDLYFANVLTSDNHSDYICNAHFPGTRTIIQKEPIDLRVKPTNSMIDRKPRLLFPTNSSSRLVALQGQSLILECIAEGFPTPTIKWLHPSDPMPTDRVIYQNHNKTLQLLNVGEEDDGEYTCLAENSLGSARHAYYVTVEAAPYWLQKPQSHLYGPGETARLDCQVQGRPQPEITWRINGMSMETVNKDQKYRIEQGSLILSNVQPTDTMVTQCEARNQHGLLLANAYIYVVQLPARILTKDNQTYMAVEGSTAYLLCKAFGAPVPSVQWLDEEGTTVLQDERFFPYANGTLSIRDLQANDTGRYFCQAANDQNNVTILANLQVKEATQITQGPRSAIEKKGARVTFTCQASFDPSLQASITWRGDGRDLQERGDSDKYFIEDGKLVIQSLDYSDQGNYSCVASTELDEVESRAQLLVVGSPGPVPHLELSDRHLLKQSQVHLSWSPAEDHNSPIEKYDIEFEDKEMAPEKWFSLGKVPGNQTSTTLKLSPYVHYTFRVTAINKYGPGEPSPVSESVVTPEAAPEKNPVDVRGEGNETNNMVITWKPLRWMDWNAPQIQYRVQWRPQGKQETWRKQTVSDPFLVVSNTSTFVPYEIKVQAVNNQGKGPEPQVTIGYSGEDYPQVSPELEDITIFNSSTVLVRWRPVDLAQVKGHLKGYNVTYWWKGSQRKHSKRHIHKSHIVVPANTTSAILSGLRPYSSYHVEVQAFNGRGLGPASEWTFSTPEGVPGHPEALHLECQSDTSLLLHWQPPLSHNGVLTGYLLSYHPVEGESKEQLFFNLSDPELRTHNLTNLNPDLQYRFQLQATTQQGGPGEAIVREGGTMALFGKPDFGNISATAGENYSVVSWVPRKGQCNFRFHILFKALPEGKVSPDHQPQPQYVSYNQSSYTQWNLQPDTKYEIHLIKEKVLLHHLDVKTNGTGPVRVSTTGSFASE

B1: Exemplified multispecific binding molecule MBM1 with conjugated siRNA (MBM1*) (bispecific antibody, human IgG4 S228P, kappa, F234A L235A)
heavy 1: not shown
light 1: ALDMTQTASPVSAAVGGTVTINCQSSQSVYNNNRLAWYQQKPGQPPKLLIYDASTLASGVPSRFKGSGSGTQFTLTISGVQSDDSATYYCQGTYFSSGWSWAFGGGTEVVVKRTVAAPSVFIFPPSDEQLKSGTASVVCLLNNFYPREAKVQWKVDNALQSGNSQESVTEQDSKDSTYSLSSTLTLSKADYEKHKVYACEVTHQGLSSPVTKSFNRGEC
heavy 2: EVQLVESGGGVVQPGRSLRLSCAASGFTFSRFGMHWVRQAPGKGLEWVAFISNDGSNKYYADSVKGRFTISRDNSKNTLYLQMNSLRPEDTAVYYCARGRAYGSGSLFDPWGQGTLVTVSSASTKGPCVFPLAPCSRSTSESTAALGCLVKDYFPEPVTVSWNSGALTSGVHTFPAVLQSSGLYSLSSVVTVPSSSLGTKTYTCNVDHKPSNTKVDKRVESKYGPPCPPCPAPEAAGGPSVFLFPPKPKDTLMISRTPEVTCVVVDVSQEDPEVQFNWYVDGVEVHNAKTKPREEQFNSTYRVVSVLTVLHQDWLNGKEYKCKVSNKGLPSSIEKTISKAKGQPREPQVYTLPPSQEEMTKNQVSLTCLVKGFYPSDIAVEWESNGQPENNYKTTPPVLDSDGSFLLYSKLTVDKSRWQEGNVFSCSVMHEALHNHYTQKSLSLSLG
light 2: DIQMTQSPSSLSASVGDRVTITCKASQGISRFLSWFQQKPGKAPKSLIYAVSSLVDGVPSRFSGSGSGTDFTLTISSLQPEDFATYYCVQYNSYPYGFGGGTKVEIKRTVAAPSVFIFPPSDEQLKSGTASVVCLLNNFYPREAKVQWKVDNALQSGNSQESVTEQDSKDSTYSLSSTLTLSKADYEKHKVYACEVTHQGLSSPVTKSFNRGEC
modifications: conjugated siRNA (denoted by *); site not stated for the SPR sample; elsewhere 'siRNA linked at HC Constant region 1'
notes: Same four chains as MBM1, with siRNA conjugated
As to B1, the figures for the dissociation rate constant (koff) in experiment [1] and in experiment [2] were 0.00027 s⁻¹ and 0.00023 s⁻¹, respectively. The Kd came out at 1.2 nM in experiment [3] and 0.89 nM in experiment [4]. The kon was 220000 M⁻¹ s⁻¹ in experiment [5] and 260000 M⁻¹ s⁻¹ in experiment [6].

B2: Exemplified multispecific binding molecule MBM1 (heterodimeric IgG antibody, TFR arm and L1CAM arm) (bispecific antibody)
heavy 1: not shown
light 1: B1 light 1
heavy 2: B1 heavy 2
light 2: B1 light 2
notes: without siRNA; also called BD1 + BD9
B2: the koff in experiment [1] was 0.0002 s⁻¹; in experiment [2], 0.00011 s⁻¹. Moreover, the figures for the equilibrium dissociation constant (Kd) in experiment [3] and in experiment [4] were 0.51 nM and 0.27 nM, respectively. For the same molecule, the values for the kon in experiment [5] and in experiment [6] were 400000 M⁻¹ s⁻¹ and 430000 M⁻¹ s⁻¹, respectively.

By koff is commonly meant the rate constant with which the complex falls apart. One may read the Kd as the free concentration of one partner at which half of the binding sites on the other are occupied at equilibrium, for simple one-to-one binding. A lower Kd goes with higher affinity. One may read the kon as the rate constant with which the complex forms.
